Laboratory results: paper PMC2914686

Substrate: C[S+](CC[C@H](N)C(=O)[O-])C[C@H]1O[C@@H](n2cnc3c(N)ncnc32)[C@H](O)[C@@H]1O
Test: Michaelis-Menten kinetics
Format: biochemical, Homo sapiens

B1: G9a (Homo sapiens) (protein)
chain: NRAIRTEKIICRDVARGYENVPIPCVNGVDGEPCPEDYKYISENCETSTMNIDRNITHLQHCTCVDDCSSSNCLCGQLSIRCWYDKDGRLLQEFNKIEPPLIFECNQACSCWRNCKNRVVQSGIKVRLQLYRTAKMGWGVRALQTIPQGTFICEYVGELISDAEADVREDDSYLFDLDNKDGEVYCIDARYYGNISRFINHLCDPNIIPVRVFMLHQDLRFPRIAFFSSRDIRTGEELGFDYGDRFWDIKSKYFTCQCGSEKCKHSAEAIALEQSRLARLD
Q: B1 was tested. Which Km did it give?
A: Its Km is 31.7 µM.
